Source: patent US20180066017A1, “CLASS I MHC PHOSPHOPEPTIDES FOR CANCER IMMUNOTHERAPY AND DIAGNOSIS” (Agenus Inc., priority 2010, published 2018)
Square brackets hold non-standard residues; d marks the D form. Ends that are not written are not given here. pS = N[C@@H](COP(=O)(O)O)C(=O)O

Key:
[1] = biological target: HLA A*0301 (Homo sapiens, UniProt P04439); assay: Binding / presentation of IRS-2 phosphopeptides by HLA A*0301
From the text: (§1) We have also shown that we can clone the T-cell receptor on the murine cytotoxic T-cells and then inject the corresponding DNA into normal human T-cells. This process turns them into cytotoxic T-cells that now recognize cancer cells that express the same class I phosphopeptides derived from IRS-2 and β-catenin. […] These experiments also open the door for using class I phosphopeptides in adopted T-cell therapy of cancer. This approach has shown dramatic success in the treatment of advanced stage metastatic melanoma. […] RVApSPTSGV (SEQ ID NO: 1289) binds to HLA A*0201 and both RVApSPTSGVK (SEQ ID NO: 53) and RVApSPTSGVKR (SEQ ID NO: 54) bind to HLA A*0301.

[2] = biological target: HLA A*0201 (Homo sapiens, UniProt P04439, D140Y/D185E/D98H/E176V/E277Q/G131W/G231S/I119V/I121R/I166T/I218V/L300P/L318F/N151K/N90K/P208A/P217A/Q86G/Q94H/R138H/R169H/T345S); assay: Binding of IRS-2 phosphopeptides to HLA A*0201
From the text: as §1

[3] = tested on: cancer cell lines COV413.AAD.A4, DM331.AAD.A4, SLM2.AAD.A1, MCF7.AAD.A2, MDAMB231.AAD; JY EBV-BLCL control; assay: Recognition of naturally processed and presented phosphopeptides on cancer cells by phosphopeptide-specific CTL (murine IFNγ release); assay type: cell-based; conditions: FIG. 1A/1B; for recognition of the phosphopeptide on control cell line by phosphopeptide-specific CTL (murine IFNγ): JY EBV-BLCL control cell line; for recognition of the phosphopeptide on cancer cell lines by phosphopeptide-specific CTL (murine IFNγ): ovarian carcinoma, melanoma and breast carcinoma cell lines
Description: FIGS. 1A and 1B are a graphic illustration of the recognition of naturally processed and presented phosphorylated peptides on cancer cells by the phosphopeptide-specific CTL. Phosphopeptide-specific CTL were incubated with the following cancer cell lines or EBV-transformed B lymphoblastoid cell lines (BLCL): COV413.AAD.A4 ovarian carcinoma, DM331.AAD.A4 and SLM2.AAD.A1 melanomas, MCF7.AAD.A2 and MDAMB231.AAD breast carcinomas, and JY EBV-BLCL. Supernatants were harvested and evaluated for the presence of murine IFNγ (produced by murine CTL lines). […] The designation “pS” denotes a phosphoserine residue. The ordinate indicates murine IFNγ in pg/ml. The abscissa indicates each cell line.

Row | Substance | binding to HLA A*0301 [1] | binding to HLA A*0201 [2] | recognition of the phosphopeptide on control cell line by phosphopeptide-specific CTL (murine IFNγ) [3] | recognition of the phosphopeptide on cancer cell lines by phosphopeptide-specific CTL (murine IFNγ) [3] | presentation by the A*0301 molecule [1]
1 | RVApSPTSGVK (RVA[pS]PTSGVK) | bind | Neither of the A*0301 peptides bind | – | – | –
2 | RVApSPTSGVKR (RVA[pS]PTSGVKR) | bind | Neither of the A*0301 peptides bind | – | – | –
3 | RVApSPTSGV (RVA[pS]PTSGV) | – | binds | not the control cell line | recognize the phosphopeptide on all the cancer cell lines | cannot be presented
4 | GLLGpSPVRA (GLLG[pS]PVRA) [phosphopeptide with phosphoserine residue recognized by CTL lines 6850 and 6960] | – | – | not the control cell line | recognize the phosphopeptide on all the cancer cell lines | –
